The source of these data is patent US20230140797A1 (published 2023).

The Kd is a measure of binding affinity in units of concentration.

Test [1] has as its target T1, human FcγRIIa type R extracellular domain with C-terminal His tag (human, UniProt P12318 34-217).
T1 sequence (looked up): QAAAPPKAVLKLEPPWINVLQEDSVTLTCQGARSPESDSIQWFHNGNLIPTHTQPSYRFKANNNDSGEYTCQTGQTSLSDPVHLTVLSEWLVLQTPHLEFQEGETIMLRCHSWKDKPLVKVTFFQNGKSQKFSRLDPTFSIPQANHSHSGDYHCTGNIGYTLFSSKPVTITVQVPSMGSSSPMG
In words: SPR.

Test [2] concerns the target human FcγRIIIa type V extracellular domain with C-terminal His tag (human, UniProt P08637 17-208). In words: SPR. (In general: Surface plasmon resonance follows binding to a sensor surface in real time, without labels.)

Sequence of human FcγRIIIa type V extracellular domain with C-terminal His tag (P08637 17-208 F176V): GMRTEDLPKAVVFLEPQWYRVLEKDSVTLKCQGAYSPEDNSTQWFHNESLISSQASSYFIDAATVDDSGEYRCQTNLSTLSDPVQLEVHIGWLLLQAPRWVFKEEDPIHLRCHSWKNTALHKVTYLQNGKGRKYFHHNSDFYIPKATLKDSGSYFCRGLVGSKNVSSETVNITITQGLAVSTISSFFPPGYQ

B1: IL6R-BP132/IL6R-L (antibody, human IgG1, kappa)
heavy: QVQLQESGPGLVKPSETLSLTCAVSGHSISHDHAWSWVRQPPGEGLEWIGFISYSGITNYNPSLQGRVTISRDNSKNTLYLQMNSLRAEDTAVYYCARSLARTTAMDYWGEGTLVTVSSASTKGPSVFPLAPSSKSTSGGTAALGCLVKDYFPEPVTVSWNSGALTSGVHTFPAVLQSSGLYSLSSVVTVPSSSLGTQTYICNVNHKPSNTKVDKKVEPKSCDKTHTCPPCPAPDLLGGDSVFLFPPKPKDTLMISRTPEVTCVVVDVSHEDPEVKFNWYVDGVEVHNAKTKPREEQYNSTYRVVSVLTVLHQDWLNGKEYKCKVSNAALPKPIEKTISKAKGQPREPQVYTLPPSRDELTKNQVSLTCLVKGFYPSDIAVEWESNGQPENNYKTTPPVLDSDGSFFLYSKLTVDKSRWQQGNVFSCSVMHEALHNHYTQESLSLSP
light: not shown
B1 came in with a Kd in test [1] of 80 µM.

B2: IL6R-BP149/IL6R-L (antibody, human IgG1, kappa)
heavy: QVQLQESGPGLVKPSETLSLTCAVSGHSISHDHAWSWVRQPPGEGLEWIGFISYSGITNYNPSLQGRVTISRDNSKNTLYLQMNSLRAEDTAVYYCARSLARTTAMDYWGEGTLVTVSSASTKGPSVFPLAPSSKSTSGGTAALGCLVKDYFPEPVTVSWNSGALTSGVHTFPAVLQSSGLYSLSSVVTVPSSSLGTQTYICNVNHKPSNTKVDKKVEPKSCDKTHTCPPCPAPDYLGDDSVFLFPPKPKDTLMISRTPEVTCVVVDVSHEDPEVKFNWYVDGVEVHNAKTKPREEQDNSTYRVVSVLTVLHQDWLNGKEYKCKVSNAALPKPIEKTISKAKGQPREPQVYTLPPSRDELTKNQVSLTCLVKGFYPSDIAVEWESNGQPENNYKTTPPVLDSDGSFFLYSKLTVDKSRWQQGNVFSCSVMHEALHNHYTQESLSLSP
light: not shown
As to B2, binding in test [1] was characterised by a dissociation constant (Kd) of 14 µM.

B3: IL6R-BP133/IL6R-L (antibody, human IgG1, kappa)
heavy: QVQLQESGPGLVKPSETLSLTCAVSGHSISHDHAWSWVRQPPGEGLEWIGFISYSGITNYNPSLQGRVTISRDNSKNTLYLQMNSLRAEDTAVYYCARSLARTTAMDYWGEGTLVTVSSASTKGPSVFPLAPSSKSTSGGTAALGCLVKDYFPEPVTVSWNSGALTSGVHTFPAVLQSSGLYSLSSVVTVPSSSLGTQTYICNVNHKPSNTKVDKKVEPKSCDKTHTCPPCPAPDYLGGDSVFLFPPKPKDTLMISRTPEVTCVVVDVSHEDPEVKFNWYVDGVEVHNAKTKPREEQYNSTYRVVSVLTVLHQDWLNGKEYKCKVSNKALPKPIEKTISKAKGQPREPQVYTLPPSRDELTKNQVSLTCLVKGFYPSDIAVEWESNGQPENNYKTTPPVLDSDGSFFLYSKLTVDKSRWQQGNVFSCSVMHEALHNHYTQESLSLSP
light: not shown
In test [2], B3 displayed a Kd of 69 µM.

B4: IL6R-BP176/IL6R-L (antibody, human IgG1, kappa)
heavy: QVQLQESGPGLVKPSETLSLTCAVSGHSISHDHAWSWVRQPPGEGLEWIGFISYSGITNYNPSLQGRVTISRDNSKNTLYLQMNSLRAEDTAVYYCARSLARTTAMDYWGEGTLVTVSSASTKGPSVFPLAPSSKSTSGGTAALGCLVKDYFPEPVTVSWNSGALTSGVHTFPAVLQSSGLYSLSSVVTVPSSSLGTQTYICNVNHKPSNTKVDKKVEPKSCDKTHTCPPCPAPDLLGGDSVFLFPPKPKDTLMISRTPEVTCVVVDVSHEDPEVKFNWYVDGVEVHNAKTKPREEQYNSTYRVVSVLTVLHQDWLNGKEYKCKVSNDALPKPIEKTISKAKGQPREPQVYTLPPSRDELTKNQVSLTCLVKGFYPSDIAVEWESNGQPENNYKTTPPVLDSDGSFFLYSKLTVDKSRWQQGNVFSCSVMHEALHNHYTQESLSLSP
light: not shown
In test [2], B4 registered a Kd of 0.054 µM.
